Activity data for 2 molecules are collected here from patent publication US20040091911, “Recombinant type II restriction endonucleases, MmeI and related endonucleases and methods for producing the same” (published 2004).

Series [1] has as its target T1, MmeI (Methylophilus methylotrophus).
T1 chain: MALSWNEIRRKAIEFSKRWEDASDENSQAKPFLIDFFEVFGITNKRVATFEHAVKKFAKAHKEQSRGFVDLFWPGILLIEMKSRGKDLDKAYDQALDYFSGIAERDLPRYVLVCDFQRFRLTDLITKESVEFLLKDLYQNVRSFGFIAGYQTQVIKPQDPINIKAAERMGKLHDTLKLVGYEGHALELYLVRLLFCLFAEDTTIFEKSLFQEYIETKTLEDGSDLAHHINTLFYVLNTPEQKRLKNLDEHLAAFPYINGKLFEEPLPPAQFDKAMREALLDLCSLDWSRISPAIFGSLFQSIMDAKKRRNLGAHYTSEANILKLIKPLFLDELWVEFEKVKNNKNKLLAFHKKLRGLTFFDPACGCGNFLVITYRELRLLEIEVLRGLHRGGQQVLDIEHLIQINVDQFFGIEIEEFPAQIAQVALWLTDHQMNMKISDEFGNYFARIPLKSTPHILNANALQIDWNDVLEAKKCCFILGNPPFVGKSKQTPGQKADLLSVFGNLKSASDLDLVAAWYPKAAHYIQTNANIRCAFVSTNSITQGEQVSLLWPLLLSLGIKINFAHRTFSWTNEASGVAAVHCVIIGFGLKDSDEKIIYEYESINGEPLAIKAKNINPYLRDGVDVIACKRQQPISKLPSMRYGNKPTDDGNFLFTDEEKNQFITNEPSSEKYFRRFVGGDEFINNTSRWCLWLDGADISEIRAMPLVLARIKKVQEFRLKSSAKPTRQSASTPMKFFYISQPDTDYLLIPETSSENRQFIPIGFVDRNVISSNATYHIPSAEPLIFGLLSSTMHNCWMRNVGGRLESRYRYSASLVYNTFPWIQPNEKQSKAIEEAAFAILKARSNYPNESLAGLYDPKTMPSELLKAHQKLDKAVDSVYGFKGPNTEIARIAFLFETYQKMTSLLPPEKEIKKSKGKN
Description: methyltransferase activity; 3H-SAM incorporation. The settings on record: preparation used with the oligos not specified; label: 5'-FAM both strands.

Series [2] concerns the target T1, MmeI. Description: methyltransferase activity on top strand; 3H-SAM incorporation. Conditions: preparation used with the oligos not specified; label: 5'-FAM both strands.

B1: oligo1+oligo2 unmethylated (dsDNA)
DNA 1: GTTTGAAGACTCCGACGCGATGGCCAGCGATCGGCGCCTCAGCTTTTG
DNA 2: CAAAAGCTGAGGCGCCGATCGCTGGCCATCGCGTCGGAGTCTTCAAAC
In turn, B1 displayed an activity in the series with MmeI [1] of over 10 fold over background.

B2: oligo1+oligo4 bottom methylated (dsDNA)
DNA 1: B1 DNA 1
DNA 2: B1 DNA 2
modifications: 6mA in bottom strand at GTCGG(6mA) (position 38)
B2 gave an activity in the series with MmeI [2] of over 10 fold over background.
